Data reported in patent publication US20240400701A1 (LANOVA MEDICINES DEVELOPMENT, published 2024).

Legend:
[1] = molecular target: T1, human AMHRII (anti-Mullerian hormone receptor type 2) (human, UniProt Q16671 18-573); experiment: FACS on Rko cells over-expressing human AMHR2
T1 construct: whole, on cells; also called AMHR2; human AMHR2
T1 sequence (looked up): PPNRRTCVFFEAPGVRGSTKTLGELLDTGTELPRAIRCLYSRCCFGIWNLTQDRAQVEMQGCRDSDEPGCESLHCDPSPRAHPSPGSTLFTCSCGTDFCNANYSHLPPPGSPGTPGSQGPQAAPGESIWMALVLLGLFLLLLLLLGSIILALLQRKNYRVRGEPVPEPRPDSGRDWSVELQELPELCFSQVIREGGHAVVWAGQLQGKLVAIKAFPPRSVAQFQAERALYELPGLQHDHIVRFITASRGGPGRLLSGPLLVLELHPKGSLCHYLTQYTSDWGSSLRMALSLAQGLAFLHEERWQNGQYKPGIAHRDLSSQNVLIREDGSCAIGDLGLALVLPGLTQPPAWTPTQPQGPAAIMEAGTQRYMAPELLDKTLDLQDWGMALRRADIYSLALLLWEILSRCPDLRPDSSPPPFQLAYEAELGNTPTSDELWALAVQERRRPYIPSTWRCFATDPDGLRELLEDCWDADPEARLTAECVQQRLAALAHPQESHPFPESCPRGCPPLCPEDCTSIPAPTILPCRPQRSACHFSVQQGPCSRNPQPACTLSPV
Protocol: (§1) Rko cells over-expressing AMHR2 were harvested from flasks. 100 μl of 1×10⁶ cells/ml of cells were incubated with primary PTM antibodies in 3-fold serial dilutions starting from 300 nM to 0.001 nM for 30 minutes on ice. After being washed with 200 μl of FACS buffer twice, cells were incubated with secondary antibody for 30 minutes on ice. Cells were washed with 200 μl of FACS buffer twice and analyzed by FACS.

mouse AMHR2 = molecular target: T2, mouse AMHR2 (mouse, UniProt Q8K592 16-568); experiment: FACS on CHO-K1 cells over-expressing mouse AMHR2
T2 construct: whole, on cells; also called mouse AMHRII
T2 sequence (looked up): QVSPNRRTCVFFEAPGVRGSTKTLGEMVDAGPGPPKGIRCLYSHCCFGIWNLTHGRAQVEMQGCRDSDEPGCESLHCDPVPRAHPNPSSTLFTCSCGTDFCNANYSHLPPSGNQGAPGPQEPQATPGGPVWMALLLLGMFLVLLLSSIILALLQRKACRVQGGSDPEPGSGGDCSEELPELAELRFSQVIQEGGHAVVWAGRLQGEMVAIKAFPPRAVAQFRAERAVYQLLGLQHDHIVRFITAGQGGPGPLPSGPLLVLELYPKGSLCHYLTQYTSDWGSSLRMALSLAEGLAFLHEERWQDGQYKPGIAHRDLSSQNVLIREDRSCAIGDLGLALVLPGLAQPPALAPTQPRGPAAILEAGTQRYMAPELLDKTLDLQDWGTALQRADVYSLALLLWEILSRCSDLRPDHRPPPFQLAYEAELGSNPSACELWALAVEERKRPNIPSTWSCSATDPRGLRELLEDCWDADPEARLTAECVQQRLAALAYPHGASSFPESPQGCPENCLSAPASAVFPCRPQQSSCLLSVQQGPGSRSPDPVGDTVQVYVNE
Protocol: as §1, with “To evaluate these antibodies' cross reactivities to cyno, rat and mouse AMHR2, CHO-K1” for “Rko”, “cyno, rat and mouse AMHR2, respectively,” for “AMHR2”, “primary” for “primary PTM”, “4-fold” for “3-fold”, “0.018” for “0.001”

rat AMHR2 = molecular target: T3, rat AMHR2 (rat, UniProt Q62893 18-557); experiment: FACS on CHO-K1 cells over-expressing rat AMHR2
T3 construct: whole, on cells; also called rat AMHRII
T3 sequence (looked up): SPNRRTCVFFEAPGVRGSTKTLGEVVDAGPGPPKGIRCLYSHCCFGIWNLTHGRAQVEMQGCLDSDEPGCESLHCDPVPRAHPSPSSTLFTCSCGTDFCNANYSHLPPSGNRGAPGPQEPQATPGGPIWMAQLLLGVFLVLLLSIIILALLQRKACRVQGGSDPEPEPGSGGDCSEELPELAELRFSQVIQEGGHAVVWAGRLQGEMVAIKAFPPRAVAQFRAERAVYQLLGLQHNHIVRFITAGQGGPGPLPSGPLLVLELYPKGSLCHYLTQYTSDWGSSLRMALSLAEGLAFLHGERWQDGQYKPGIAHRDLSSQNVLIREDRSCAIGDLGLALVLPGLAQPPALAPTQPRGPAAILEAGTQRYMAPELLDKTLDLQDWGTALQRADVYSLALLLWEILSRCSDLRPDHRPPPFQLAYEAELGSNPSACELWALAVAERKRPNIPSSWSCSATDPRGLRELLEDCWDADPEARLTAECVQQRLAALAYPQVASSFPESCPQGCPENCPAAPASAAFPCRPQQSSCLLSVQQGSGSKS
Protocol: as §1, with “To evaluate these antibodies' cross reactivities to cyno, rat and mouse AMHR2, CHO-K1” for “Rko”, “cyno, rat and mouse AMHR2, respectively,” for “AMHR2”, “primary” for “primary PTM”, “4-fold” for “3-fold”, “0.018” for “0.001”

[2] = molecular target: T1, human AMHRII (anti-Mullerian hormone …); experiment: FACS on CHO-K1 cells over-expressing human AMHR2
Protocol: as §1, with “CHO-K1” for “Rko”, “over-expressed” for “over-expressing”, “the humanized” for “primary PTM”

[3] = molecular target: T1, human AMHRII (anti-Mullerian hormone …); experiment: FACS on CHO-K1 cells over-expressing human AMHR2; remark: listed apart in the source
Protocol: as §1, with “CHO-K1” for “Rko”, “over-expressed” for “over-expressing”, “the humanized” for “primary PTM”

B1: 108F3D1E9 H1L1 hIgG1 (antibody, V domains shown)
VH: QLQLQESGPGLVKPSETLSLTCTVSGYSITSDFAWNWIRQPPGKGLEWIGYISFSGSTSYNPSLKSRVTISVDTSKNQFSLKLSSVTAADTAVYYCARSRYSWFAYWGQGTLVTVSS
VL: DIQMTQSPSSLSASVGDRVTITCRASESVDTYGNSFMHWYQQKPGKAPKLLIYRASNLESGVPSRFSGSGSGTDFTLTISSLQPEDFATYYCQQSNEDPYTFGGGTKVEIK
notes: Humanized, PTM de-risked VH, human IgG1; also called 108F3D1E9 H1L1 hlgG1
EC50 [1]: 0.528 nM
Top (MFI) [1]: 16200 MFI
binding result (mouse AMHR2): binds
binding result (rat AMHR2): binds
EC50 [2]: 0.74 nM
Top (MFI) [2]: 65400 MFI

B2: 94C4C3 H1L1 hIgG1 (antibody, V domains shown)
VH: QLQLQESGPGLVKPSETLSLTCTVSGYSITSDYAWNWIRQPPGKGLEWIGYISYSGSISYNPSLKSRVTISVDTSKNQFSLKLSSVTAADTAVYYCARSRYSWFDYWGQGTLVTVSS
VL: EIVLTQSPGTLSLSPGERATLSCSASESVDTYGNSFMHWYQQKPGQAPRLLIYRASSLESGIPDRFSGSGSGTDFTLTISRLEPEDFAVYYCQQSNEDPYTFGGGTKVEIK
notes: Humanized, human IgG1; also called 94C4C3 H1L1 hlgG1
EC50 [1]: 0.695 nM
Top (MFI) [1]: 18900 MFI
binding result (mouse AMHR2): binds
binding result (rat AMHR2): binds
EC50 [2]: 1.7 nM
Top (MFI) [2]: 53000 MFI

B3: 31D9B3 VH1.3-VL2.2 hIgG1 (antibody, V domains shown)
VH: QVQLVQSGAEVKKPGASVKVSCKASGYTFTDYWVSWVRQAPGQGLEWMGEIYPKNQVSNFNEKFKGRVTMTTDTSTSTAYMELRSLRSDDTAVYYCARQRDYWGQGTLVTVSS
VL: DVVMTQSPLSLPVTLGQPASISCRSSQSLEYGDRYTYLEWYLQRPGQSPRLLIYGVSNRFSGVPDRFSGSGSGTDFTLKISRVEAEDVGVYYCFQATHDPNTFGQGTKLEIK
notes: Humanized, PTM de-risked, human IgG1; also called 31D9B3 VH1.3-VL2.2 hlgG1
EC50 [1]: 0.783 nM
Top (MFI) [1]: 16400 MFI
binding result (mouse AMHR2): no binding (tested: 300 nM highest concentration)
binding result (rat AMHR2): no binding (tested: 300 nM highest concentration)
EC50 [3]: 0.703 nM
Top (MFI) [3]: 24100 MFI
